Laboratory results from US20250249120A1 (CHILDREN S HEALTH CARE D B A CHILDREN S MINNESOTA, published 2025).

Target: T1, CD179a (VpreB1) component of the pre-BCR surrogate light chain, on B-ALL cells (human, UniProt P12018 20-145)
T1 sequence (looked up): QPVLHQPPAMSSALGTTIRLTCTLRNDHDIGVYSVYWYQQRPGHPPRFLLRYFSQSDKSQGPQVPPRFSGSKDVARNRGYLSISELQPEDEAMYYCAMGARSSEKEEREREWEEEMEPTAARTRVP
Experiment: cell-based or functional assay

IC50 (the inhibitory concentration that causes 50% of cells to die), Nalm6 B-ALL cell line: 0.059 µg/mL
B1: calicheamicin-based antibody-drug conjugate (ADC) against CD179a (antibody, human IgG1, kappa, V domains shown)
VH: EVQLVESGGGLVKPGGSLRLSCAASGFTFSNFEMNWVRQAPGKGLEWVSGISSNGRYINYADSVKGRFTISRDNAKNSLYLQMNSLRAEDTAVYYCARVVDFDQDYNGFDYWGQGTLVTVSS
VL: DIQLTQSPSFLSASVGDRVTITCRASQGISTDLNWYQQKPGKAPKLLIYAASNLESGVPSRFSGSGSGTEFTLTISSLQPEDFATYYCQQSYNWPYTFGGGTKVEIKR
modifications: AcBut-calicheamicin linker-payload, DAR of 5:1, conjugated residues not stated
